Km and kcat data for one protein are collected here from publication PMC12654650, “Characterization of a β-Galactosidase from Kosakonia oryzendophytica and Its Heterologous Expression in Bacillus subtilis for Galactooligosaccharides Production” (Molecules, 2025).

Substrate in the data set: O=[N+]([O-])c1ccccc1O[C@@H]1O[C@H](CO)[C@H](O)[C@H](O)[C@H]1O
In words: purified protein. The note with it: pH 7.0, 100 mM HEPES, 50 °C, 5 min, ONPG 0.3-50 mM, fit called substrate inhibition curve (Figure S4). Format: biochemical, Kosakonia oryzendophytica.

B1: Koor β-gal (Kosakonia oryzendophytica) (protein)
chain: MSASALRTLISRRDWENPVITHWHRLPAHAPMRSWRDEQAARDNAPSSAHRLLNGEWYFRFFPAPEAVPERWITEEYDDAVAMPVPSNWQMQGFDTPIYTNVTYPIPVNPPFVPQQNPTGCYSLTFEMTAQALAQGQTRIVFDGVNSAFYLWCNGQWIGYSQDSRLPAEFDLSDVLHVGQNRLAVMVLRWCDGSYLEDQDMWRMSGIFRDVSLQHKPATHIADFHHTTELNAEFTHGQVKVDLRLAGEYSACQVAVALWHGEEKIAQAQQAPGSAIVDERGAWAERLSVSLPVSDPLLWSAETPHLYRLTLTLLDGLGNVLEVEACNVGFRKVEISNGLLKLNGKPLLIRGVNRHEHHPENGQAIDEATMRRDIELMKQHNFNAVRCSHYPNHPLWYSLCDEYGLYVVDEANIETHGMTPMSRLSDDPQWLPAMSERVTRMVLRDRNHPSIIIWSLGNESGHGASHDALYRWLKTTDPTRPVQYEGGGANTAATDIICPMYARVDEDQPFPAVPKWSIKKWIGLPDETRPLILCEYAHAMGNSFGGFAKYWQAFRETPRLQGGFVWDWVDQALTKTDTNGQSFWAYGGDFGDTPNDRQFCMNGLVFPDRTPHPALYEAQRAQQFFQFRLLNTTPLVIEVESEYLFRTTDNEYLRWAVVRDGLVLAQGEITLAIAPQGKQQIALTIPELESAPGEVWLNVDVYQKAATPWSDAEHHCAWDQWRLPSPLFIAPRKTVSSRPMLVVSEEEYVIHHRNQRWQFCRRSGDLIQWWRDEQPTLLTPLRDSFARAPLDNDIGISEVTRIDPNAWVERWKAAGMYDLRAELLACEVEEHAADIVVTTTHCWSGAGKTGFVSHKRWRIDGEGVLHGEVDVQVATDIPPPARIGLVCQLSEVQASVSWLGLGPHENYPDRKLAARQGRWTLPLAALHTPYIFPGENGLRCETRELHYGAHHLNGDFHFSLGRYSDKQLRETTHHHLLREEAGCWLHLDAFHMGVGGDDSWSPSVSPEFILRSERVRYAFCWRQD
notes: C-terminal 6xHis tag, pET-28a(+) NcoI/XhoI, E. coli BL21(DE3), Ni-NTA; synthetic gene
B1: the Michaelis constant (Km) (in general, the concentration of substrate that gives half-maximal velocity) is listed as 6.0 ± 0.3 mM; the kcat (in general, the number of substrate molecules converted per active site and unit of time at saturation) turned out to be 732.7 ± 43.5 s⁻¹.
